Two substances from article PMC7575552 can be followed below.

For this assay, the target named is Hsp70 (385–641) (UniProt P0DMV8). Description: ITC; TA Instruments NanoITC, 25 °C, stir speed 600 rpm; 350 µM WT or S20E CHIP titrated into 50 µM Hsp70 (385–641), twenty-four 2 µL injections; triplicate. On the technique in general: ITC needs no label: the signal is the heat of the interaction.
UniProt P0DMV8, sequence (P0DMV8 385-641): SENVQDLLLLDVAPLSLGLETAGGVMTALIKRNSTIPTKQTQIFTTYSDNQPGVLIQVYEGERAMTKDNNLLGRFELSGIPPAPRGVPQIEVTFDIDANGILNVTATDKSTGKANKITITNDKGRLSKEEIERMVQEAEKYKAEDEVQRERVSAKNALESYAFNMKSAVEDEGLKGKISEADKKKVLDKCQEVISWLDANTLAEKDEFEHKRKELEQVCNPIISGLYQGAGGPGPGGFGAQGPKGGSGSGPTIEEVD

Take “Recombinant human CHIP wild type (from UniProt Q9UNE7 1-303) (natural protein)”: the dH was -6.31 kcal/mol.

With “Recombinant human CHIP S20E (phosphomimetic) (from UniProt Q9UNE7 1-303) (natural protein)”, the dH was -7.67 kcal/mol.
